In patent publication US20200181261A1 (Bayer, published 2020):
Changes are numbered by the printed parent chain.

T1: human CEACAM3, full-length, on transfected HeLa cells (human, UniProt P40198 35-252)
T1 construct: also called TPP-4187; HeLa human CEACAM3
T1 sequence: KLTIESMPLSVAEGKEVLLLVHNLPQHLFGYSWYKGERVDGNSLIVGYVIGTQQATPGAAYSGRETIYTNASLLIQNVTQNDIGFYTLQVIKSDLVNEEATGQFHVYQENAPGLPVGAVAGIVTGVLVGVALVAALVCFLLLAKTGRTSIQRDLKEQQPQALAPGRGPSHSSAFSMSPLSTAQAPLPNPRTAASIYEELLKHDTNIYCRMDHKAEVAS

T2: Human CEACAM6-Domain 1-His (expressed in E. coli), wild-type (human)
T2 construct: entry includes the His tag; also called hDOM1
T2 chain: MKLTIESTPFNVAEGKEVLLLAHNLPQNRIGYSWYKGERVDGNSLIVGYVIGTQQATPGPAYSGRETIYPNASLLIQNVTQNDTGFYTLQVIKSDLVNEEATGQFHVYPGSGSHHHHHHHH

T3: Macaca fascicularis CEACAM6-Domain 1-His (expressed in E. coli) (Macaca fascicularis)
T3 construct: entry includes the His tag; also called TPP-2453; Recombinant single domain 1 of Macaca fascicularis CEACAM6
T3 chain: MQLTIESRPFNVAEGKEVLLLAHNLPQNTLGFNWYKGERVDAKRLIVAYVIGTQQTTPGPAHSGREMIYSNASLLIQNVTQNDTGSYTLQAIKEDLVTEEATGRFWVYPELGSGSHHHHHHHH

T4: human CEACAM6, extracellular (mature form), R&D Systems 3934-CM (human, UniProt P40199 35-320)
T4 construct: used biotinylated in some assays; also called TPP-1436; Recombinant human CEACAM6
T4 sequence: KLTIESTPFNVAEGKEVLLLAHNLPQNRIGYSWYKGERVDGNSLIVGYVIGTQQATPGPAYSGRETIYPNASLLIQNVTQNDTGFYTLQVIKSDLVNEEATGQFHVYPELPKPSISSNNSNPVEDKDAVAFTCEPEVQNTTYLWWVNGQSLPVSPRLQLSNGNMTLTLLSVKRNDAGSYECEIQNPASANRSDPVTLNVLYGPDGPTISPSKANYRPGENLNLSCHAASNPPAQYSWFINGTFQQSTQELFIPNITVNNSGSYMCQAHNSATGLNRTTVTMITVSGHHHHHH

B1: TPP-3821 (antibody, human IgG2, kappa, V domains shown)
VH: QVTLRESGPALVKPTQTLTLTCTFSGFSLSTYGIGVGWIRQPPGKALEWLAHIWWNDNKYYSTSLKTRLTISKDTSKNQVVLTMTNMDPVDTATYYCARISLPYFDYWGQGTLVTVSS
VL: DIQLTQSPSFLSASVGDRVTITCKASQNVGTAVAWYQQKPGKAPKLLIYSASNRYTGVPSRFSGSGSGTEFTLTISSLQPEDFATYYCQQYNNYPLTFGGGTKVEIKR
notes: humanized from TPP-3187, human IgG2; also called 3187HU2-hIgG2Kappa
B2: TPP-3310 (antibody, human IgG2, kappa)
heavy: QVTLRESGPALVKPTQTLTLTCTFSGFSLSTYGIGVGWIRQPPGKALEWLAHIWWNDNKYYSTSLKTRLTISKDTSKNQVVLTMTNMDPVDTATYYCARISLPYFDYWGQGTTLTVSSASTKGPSVFPLAPCSRSTSESTAALGCLVKDYFPEPVTVSWNSGALTSGVHTFPAVLQSSGLYSLSSVVTVPSSNFGTQTYTCNVDHKPSNTKVDKTVERKCCVECPPCPAPPVAGPSVFLFPPKPKDTLMISRTPEVTCVVVDVSHEDPEVQFNWYVDGVEVHNAKTKPREEQFNSTFRVVSVLTVVHQDWLNGKEYKCKVSNKGLPAPIEKTISKTKGQPREPQVYTLPPSREEMTKNQVSLTCLVKGFYPSDIAVEWESNGQPENNYKTTPPMLDSDGSFFLYSKLTVDKSRWQQGNVFSCSVMHEALHNHYTQKSLSLSPG
light: DIQLTQSPSFLSASVGDRVTITCKASQNVGTAVAWYQQKPGKAPKLLIYSASNRYTGVPSRFSGSGSGTEFTLTISSLQPEDFATYYCQQYSSYPLTFGGGTKVEIKRTVAAPSVFIFPPSDEQLKSGTASVVCLLNNFYPREAKVQWKVDNALQSGNSQESVTEQDSKDSTYSLSSTLTLSKADYEKHKVYACEVTHQGLSSPVTKSFNRGEC
notes: humanized from TPP-2971, human IgG2; also called TPP-2971HU1-hIgG2Kappa
B3: TPP-3820 (antibody, human IgG2, kappa, V domains shown)
VH: B1 VH with S30T, A46G
VL: B1 VL
notes: humanized from TPP-3187, human IgG2; also called 3187HU1-hIgG2Kappa
B4: TPP-2971 (antibody, mouse IgG1, V domains shown)
VH: QVTLKESGPGILQPSQTLSLTCSFSGFSLSTYGIGVGWIRQPSGKDLEWLAHIWWNDNKYYNTALKSRLTISKDTSNNQVFLKIASVDTADTATYYCARISLPYFDYWGQGTTLTVSS
VL: DIVMTQSQKFMSTSVGDRVSITCKASQNVGTAVAWYQQKPGQSPKLLIYSASNRYTGVPDRFTGSGSGTDFTLTISNMQSEDLADYFCQQYSSYPLTFGAGTKLELK
notes: murine hybridoma antibody, mouse IgG1; also called 792.15H12C9
B5: TPP-3187 (antibody, mouse IgG1, V domains shown)
VH: B4 VH with S30T, D46G
VL: B4 VL with S92N, S93N
notes: murine hybridoma antibody, mouse IgG1; also called 792.15C4F4
B6: TPP-3714 (antibody, human IgG2, kappa)
heavy: B2 heavy with T113L, L114V
light: B2 light
notes: humanized from TPP-2971, human IgG2; also called TPP-2971HU2-hIgG2Kappa
B7: TPP-3323 (antibody, human IgG2, kappa, V domains shown)
VH: B4 VH with S30T, D46G
VL: DIVMTQSQKFMSTSVGDRVSITCKASQNVGTAVAWYQQKPGQSPKLLIYSASNRYTGVPDRFTGSGSGTDFTLTISNMQSEDLADYFCQQYNNYPLTFGAGTKLELKR
notes: human IgG2 chimera; also called TPP-3187X1-hIgG2; hIgG2 chimera of TPP-3187
B8: TPP-3308 (antibody, human IgG2, kappa, V domains shown)
VH: B4 VH
VL: B7 VL with N92S, N93S
notes: human IgG2 chimera; also called TPP-2971X1-hIgG2Kappa; hIgG2 chimera of TPP-2971
B9: TPP-3705 (antibody, human IgG2, kappa, V domains shown)
VH: EVQLVESGGGLVQPGGSLRLSCAASGFTFSLYQMHWVRQAPGKGLEWVSWISFSGGNTGYADSVKGRFTISRDNSKNTLYLQMNSLRAEDTAVYYCARATGYSSPWYLDPWGQGTLVTVSS
VL: DIQMTQSPSSLSASVGDRVTITCQASHEIDNYLNWYQQKPGKAPKLLIYDAYWLKTGVPSRFSGSGSGTDFTLTISSLQPEDIATYYCQGYDDLSVTFGGGTKVDIKR
notes: also called 090E-M007-A09-Mat1-hIgG2-hIgG2Kappa
B10: TPP-3707 (antibody, human IgG2, kappa, V domains shown)
VH: B9 VH
VL: B9 VL with L54S
notes: also called 090E-M007-A09-Mat2-hIgG2-hIgG2Kappa

Each binder was assayed against T1, human CEACAM3, full-length, on … (assay: FACS, transfected HeLa cells).
Experimental: For FACS experiments HeLa wild type cells were cultured in RPMI-1640, 10% FCS, while CEACAM-receptor transfected HeLa cells received in addition 0.5% Gentamycin (stock 10 mg/ml, Fa. PAA) and 200 μg/ml Hygromycin B (stock 50 mg/ml, Invitrogen). Cells were washed 3 times with PBS w/o Ca²⁺/Mg²⁺ and were detached from the culture plate non-enzymatically with EDTA dissociation buffer (Gibco). Cells were washed in cold FACS buffer (PBS w/o Ca²⁺/Mg²⁺ and heat-inactivated 3% FCS) and were counted using a countess machine (Invitrogen). 10⁵ cells per well were plated and incubated with the respective primary antibody (5 μg/ml) for 1 h at 4° C. on a plate shaker. […] After 2 times washing the cells were resuspended in 100 μl FACS buffer and were analysed on a FACS Canto II machine (Beckton Dickinson) or a FACS Array (Beckton Dickinson).
For EC₅₀ analysis, the primary antibodies were used at increasing concentrations in a range from 0.1 nM to 100 nM. Half maximal binding values (EC₅₀) were determined by plotting the median fluorescence intensity signal against the concentration (logarithmic scale). Curve fitting of data was performed using the Graph Pad prism analysis software.

binding result	Binder
no binding (tested: 5 µg/ml)	B1
no binding (tested: 5 µg/ml)	B2
no binding (tested: 5 µg/ml)	B3
no binding (tested: 5 µg/ml)	B4
no binding (tested: 5 µg/ml)	B5
no binding (tested: 5 µg/ml)	B6
no binding (tested: 5 µg/ml)	B7
no binding (tested: 5 µg/ml)	B8

Target: T2, Human CEACAM6-Domain 1-His (expressed …)
Assay: SPR, antibody captured, antigen as analyte
Experimental: (§1) Surface plasmon resonance (SPR) experiments for quantitative binding analyses were performed either using a Biacore T100, Biacore T200 or a Biacore 4000 instrument (GE Healthcare Biacore, Inc.) equipped with Series S Sensor Chips CM5 (GE Healthcare Biacore, Inc.). Binding assays were carried out at 25° C. with assay buffer HBS-EP+(10 mM HEPES pH 7.4, 150 mM NaCl, 3 mM EDTA, 0.05% Surfactant P20). Antibodies were captured with an anti-hIgG capture antibody covalently immobilized to the chip surface via amine coupling chemistry. Reagents for amine coupling (1-ethyl-3-(3-dimethylaminopropyl) carbodiimide hydrochloride (EDC), N-hydroxysuccinimide (NHS), ethanolamine-HCl pH 8.5) were used from the Amine Coupling Kit (GE Healthcare, product code BR-1000-50). Anti-hIgG, anti-mIgG capture antibodies and immobilization buffer (10 mM sodium acetate pH 5.0) were used from the Human Antibody Capture Kit (GE Healthcare, BR-1008-39) and the Mouse Antibody Capture Kit (GE Healthcare, BR-1008-38), respectively. The sensor chip surface was activated with a freshly prepared solution of 0.2 M EDC and 0.05 M NHS passed over the chip surface for 420 s at a flow rate of 10 μl/min, followed by an injection of anti-hIgG or anti-mIgG capture antibody (dissolved to 25 μg/ml in immobilization buffer) for 180 s at a flow rate of […]. Excess of activated groups were blocked with a 1 molar solution of ethanolamine injected at a flow rate of 10 μl/min for 420 s.
(§2) CEACAM antigens were used as analyte to determine KD values. Antibodies were captured for 20 s at a flow rate of 10 μl/min prior to each analyte injection.

Kd	Binder
4.5 nM	B1
3.7 nM	B2
5.1 nM	B3
6.7 nM	B9
6.4 nM	B10
11 nM	B4
12 nM	B5
3.7 nM	B6
9 nM	B7
9.5 nM	B8

Target: T3, Macaca fascicularis CEACAM6-Domain …
Assay: SPR, antibody captured, antigen as analyte
Experimental: as §1, §2

Kd	Binder
4.7 nM	B1
3.4 nM	B2
5.2 nM	B3
2.7 nM	B9
2.4 nM	B10
5.3 nM	B4
6.9 nM	B5
3.2 nM	B6
6.9 nM	B7
5.4 nM	B8

What follows are binders tested against T4, human CEACAM6, extracellular (mature …) (assay: ELISA, antibody captured, biotinylated antigen titrated).
Experimental: The binding characteristics of these antibodies were also determined by a binding ELISA (monovalent binding, biotinylated CEACAM proteins): A 1:440 dilution of an anti-human IgG (Sigma, 12136) in Coating buffer (Candor) was used to coat black 384-well Maxisorp plates (Nunc) for 1 hour at 37° C. After one wash with PBS/0.05% Tween-20 the plates were blocked with 100% SmartBlock (Candor) for 1 hour at 37° C. After three washes, 2 μg/ml of the relevant antibodies were added to the plate in PBS/0.05% Tween-20/10% SmartBlock. The plates were incubated for 1 hour at room temperature. After three washes dilution series of the relevant biotinylated CEACAM proteins in PBS/0.05% Tween-20/10% SmartBlock were added and the plates were incubated for one hour at room temperature. After three washes 1 μg/ml of Streptavidin-Peroxidase (Sigma, S5512) in PBS/0.05% Tween-20/10% SmartBlock was added and the plates were incubated for 30 minutes at room temperature. After three washes, the plates were developed with Amplex Red (Life Technologies) and fluorescence was read at an emission wavelength of 590 nm. GraphPad Prism 6.0 software was used to calculate EC₅₀ values using four-parameter non-linear curve fit.

EC50	fold better binding than to human CEACAM3 (ratio of EC50 values)	Binder
0.09 nM	–	B2
0.18 nM	~620 fold	B9
0.19 nM	~730 fold	B10
0.09 nM	–	B6
